Laboratory results taken from patent publication US8329186B2, “Treatment of inflammation using BST2 inhibitor” (Isu Abxis Co., Ltd, priority 2004, dated 2012).

System: interleukin-2 (IL-2)
Assay: IL-2 expression in activated Jurkat cells (real-time RT-PCR)
Type: cell-based, human
Details: 3-fold increased by Jurkat cell activation
Experimental: Intracellular expression levels of specific genes were analyzed by real-time quantitative RT-PCR using ABI Prism 7900HT (Applied Biosystems, Foster City, Calif.) and a SYBR-Green assay kit. Primers and probes used were designed using Primer Express software (Applied Biosystems).
10 ng of single-stranded cDNA was placed in a reaction tube and subjected to multiplex TaqMan PCR (50 μl) using the TaqMan Universal PCR Master Mix. The relative amount of target cDNA was calculated using the comparative cycle threshold (CT) method. PCR products were analyzed by agarose gel electrophoresis.
The relative levels of a specific gene A were expressed as a change compared to a control sample (untransfected cells). […] The above experiments were carried out to quantify the expression of the Bst2 gene and interleukin-2.
When Jurkat cells (5×10^5 cells/ml) were incubated with anti-CD3 monoclonal antibody (OKT3: 10 μg/ml, BD Pharmingen) at 4° C. for 20 min and then with anti-mouse immunoglobulin polyclonal antibody (25 μg/ml, Zymed) 37° C. for 1 hr, cell aggregation occurred, and the cells were activated and induced to produce interleukin-2 (IL-2) (FIGS. 10 and 11). […] IL-2 mRNA levels upon T cell activation were measured by real-time RT-PCR (Example 3). […]

B1: Bst2 decoy: soluble Bst2 protein fragment having the amino acid sequence of SEQ ID NO:1; extracellular region of human Bst2, six-histidine tag (protein)
chain: NSEACRDGLRAVMECRNVTHLLQQELTEAQKGFQDVEAQAATCNHTVMALMASLDAEKAQGQKKVEELEGEITTLNHKLQDASAEVERLRRENQVLSVRIADKKYYPSSQDHHHHHH
In the case of B1, the “expression of IL-2” value is reported as “decreased again to the basal level”.
